Kd data for 2 molecules are collected here from paper PMC4609182 (2015).

One test concerns the target Ub (Homo sapiens). The experiment in a line: ITC.
Test [1] addresses T1, Parkin R0RBR module (RING0, RING1, IBR, RING2), wild type (rat, UniProt Q9JK66 141-465).
T1 chain: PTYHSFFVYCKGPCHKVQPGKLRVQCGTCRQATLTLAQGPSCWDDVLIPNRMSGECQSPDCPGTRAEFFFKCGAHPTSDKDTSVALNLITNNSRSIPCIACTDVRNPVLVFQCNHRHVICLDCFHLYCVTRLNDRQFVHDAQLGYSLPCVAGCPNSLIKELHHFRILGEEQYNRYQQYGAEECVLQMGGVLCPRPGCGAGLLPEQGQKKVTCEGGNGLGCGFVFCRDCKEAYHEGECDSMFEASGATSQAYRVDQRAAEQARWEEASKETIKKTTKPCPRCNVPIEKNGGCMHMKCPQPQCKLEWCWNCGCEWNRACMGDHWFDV
In words: ITC. Background: In ITC the heat of successive injections is recorded.

B1: Parkin R0RBR module (RING0, RING1, IBR, RING2), wild type (domain or fragment)
chain: T1 chain
modifications: unmodified (non-phosphorylated) ubiquitin; only the figure label 'Ub' is given, so wild type is assumed (the non-phosphorylatable control in Fig EV3B is a separate His-tagged UbS65A)
One may read the Kd as the concentration at which binding is half-saturated. Read a low Kd as tighter binding. B1 yielded an equilibrium dissociation constant (Kd) in the test with Ub of 41 µM.

B2: Parkin Ubl domain (ubiquitin-like domain), unmodified (domain or fragment)
chain: MIVFVRFNSSYGFPVEVDSDTSIFQLKEVVAKRQGVPADQLRVIFAGKELQNHLTVQNCDLEQQSIVHIVQRPQRK
For B2, the Kd in test [1] stood at 14 µM.
